{
  "source": "patent US20050203281A1",
  "about": "“Production of recombinant fragments of muscle acetylcholine receptor and their use for ex vivo immunoadsorption of anti-ch receptor antibodies from myasthenic patients” (priority 2002, published 2005)",
  "key": {"[1]": {"tested_on": "anti-AChR antibodies from MG sera", "assay": "Immunoadsorption of anti-AChR antibodies from MG sera by CNBr-Sepharose-immobilized subunit domains, RIA with human AChR from TE671 cells", "assay_type": "binding", "settings": "for percentage of anti-AChR antibodies eliminated, best-adsorbed sera: 13 of 64 (20%) MG sera, 2.5 ul serum", "method": "FIG. 6 illustrates the immunoadsorption of anti-AChR antibodies from MG sera using immobilized alpha1-210 (black bars), gamma1-218 (grey bars) and epsilon1-219 (blank bars). Each subunit has been expressed in the yeast Pichia pastoris and the purified proteins have been covalently immobilized on CNBr-Sepharose beads. 64 MG positive sera were assayed for binding to human AChR after incubation with alpha1-210 immobilized on CNBr-Sepharose (together with BSA) or with just BSA immobilized on the same insoluble matrix. 2.5 ul of each MG patient serum were incubated with 0.2 ug immobilized alpha1-210 mixed with BSA or the same amount of BSA at […] for 2-3h (in a total volume of 0.16 ml) followed by centrifugation. Samples of the supernatants, each containing an amount corresponding to 0.9 ul of the treated MG sera were subsequently used in a typical RIA MG diagnostic test (Lindstrom et al., Meth. Enzymol. 74, 432460, 1981) with human AChR from TE671 cells. The percentage of immunoadsorption was estimated as described in the Example 3. Samples were processed in duplicates. Results shown (black bars) are an average of two experiments. Sera are sorted in decreasing percentage of immunoadsorption to immobilized alpha1-210.\nFIG. 7 illustrates the immunoadsorption of anti-AChR antibodies from MG sera against immobilized alpha1-210 (black bars), gamma1-218 (gray bars) and a mix of both immobilized alpha1-210 and gamma1-218 (hatched bars). 9 MG sera were assayed for binding to human AChR after incubation of 20 fmoles anti-AChR MG antibodies with alpha1-210 (1 ug), or gamma1-218 (1 ug) or alpha1-210/gamma1-218 mix (containing 1 ug of each subunit) immobilized on CNBr-Sepharose. Incubation with just BSA immobilized to the same insoluble matrix served as a control to calculate the percent immunoadsorption against each of the subunits and the mix of both. After incubation with the Sepharose-immobilized proteins, sera were screened in a typical RIA experiment using TE671 AChR. The percentage of immunoadsorption was estimated as described in the Example 3. Samples were processed in duplicates. Results shown are an average of two experiments.\nImmunoadsorption of MG autoantibodies by immobilized alpha1-210. 0.1 mg alpha1-210 mixed with 1.4 mg BSA was covalently bound to 0.5 gr CNBr-Sepharose according to manufacturer's protocol (Amersham). BSA was simply added to increase the protein/Sepharose ratio because the ratio of recombinant protein to Sepharose beads used would otherwise be too small; BSA is not necessary for larger scale experiments. In parallel, 1.5 mg BSA was bound to the same amount of CNBr-Sepharose under the same conditions as control. 2.5 ul MG patient sera were incubated with 0.2 ug immobilized alpha1-210 mixed with BSA, or the same amount of immobilized BSA alone, at 4° C. for 2-3 h (in a total volume of 0.16 ml) followed by centrifugation for bead precipitation. Samples of the supernatants, each containing an amount corresponding to 0.9 ul of these treated MG sera were subsequently used in a typical RIA MG diagnostic test (Lindstrom et al., Meth. Enzymol. 74, 432460, 1981) with human AChR from TE671 cells. The percentage of immunoadsorption was estimated as the ratio between the reduction in immunoprecipitated radiolabeled human AChR after incubation with alpha1-210 and the immunoprecipitated radiolabeled human AChR without incubation with alpha1-210 (incubation with plain immobilized BSA). 64 MG positive sera were assayed for binding to human AChR after incubation with immobilized alpha1-210 or BSA. […] We also tested immunoadsorption of the same set of MG sera by incubating 0.2 ug immobilized alpha1-210 with a fixed amount of anti-AChR antibodies (20 fmoles in variable volumes of MG sera depending on their titer) rather than a fixed serum volume.\nImmunoadsorption of MG autoantibodies by immobilized gamma1-218 or epsilon1-219 domains. […]"}, "alpha1-210": {"tested_on": "alpha1-210", "assay": "Delta1-224 studied together with alpha1-210 in 125I-alpha-BTX binding experiments", "design": "species or system human"}, "125I-alpha-BTX [2]": {"tested_on": "125I-alpha-BTX", "assay_type": "binding", "method": "FIG. 2 illustrates the binding of alpha-BTX to alpha1-210 of FIG. 1. (A) Scatchard plot analysis of ^125I-alpha-BTX binding to alpha1-210 fragment. Culture supernatants containing alpha1-210 (40 microliters, 40 ul) were incubated with various concentrations of ^125I-alpha-BTX in 10 ul of PBS-0.2 % bovine serum albumin (BSA), then, after 3 hours incubation at 40° C., the samples were filtered through Whatman DE81 filters, and the bound radioactivity measured on a gamma counter (filter assay). Samples were processed in duplicates. […] (B) The specific binding of the ^125I-alpha-BTX to alpha1-210 fragment was studied in competition experiments involving the simultaneous addition of increasing concentrations of unlabeled toxin. Samples were processed in duplicates. Binding of labeled alpha-BTX in the absence of unlabeled alpha-BTX was taken as the 100% level. (C) Effect of deglycosylation on ^125I-alpha-BTX binding to alpha1-210. In vitro deglycosylation was performed using N-glycosidase F treatment. Aliquots at various reaction time-points were assayed for ^125I-alpha-BTX binding in filter assay experiments. Samples were processed in duplicates (dark columns, N-glycosidase F treatment; light columns, control treatment).\nTo study the binding of alpha-BTX to alpha1-210 as an indication of correct protein folding, we tested both crude culture supernatants and the purified protein in “filter assay” experiments: Fifty nanograms of purified alpha1-210 or […] of culture supernatant was incubated at […] for 3 h with various concentrations of ^125I-alpha-BTX (specific activity 800,000 cpm/pmole) in a final volume of […] of PBS buffer, pH 7.5, 0.2% BSA. The samples were then diluted with 1 ml of 0.5% Triton X-100 in 20 mM Tris buffer, pH 7.5 (Triton buffer) and immediately filtered through two Whatman DE81 filters prewashed with Triton buffer. The filters were then washed twice with 1 ml of Triton buffer and the bound radioactivity measured on a gamma-counter. Samples without alpha1-210 were used to measure non-specific binding. Specific binding of alpha-BTX was also studied in competition experiments by addition of various amounts of unlabeled alpha-BTX to the sample."}, "[3]": {"tested_on": "anti-AChR autoantibodies from MG sera", "assay": "Binding of MG patients' autoantibodies to 125I-alpha-BTX-labeled alpha1-210 and hybrid AChR (RIA)", "design": "species or system human", "method": "50 MG-positive sera were assayed for binding to alpha1-210 and to a hybrid AChR molecule (HaTbgd) containing human alpha subunit and Torpedo beta, gamma and delta subunits, labeled with ^125I-alpha-BTX. MG sera binding to ^125I-alpha-BTX-alpha1-210 were plotted versus binding to ^125I-alpha-BTX-HaTbgd in a logarithmic scale. […] Samples were processed in duplicates.\n70 human sera were screened: 50 MG and 20 healthy controls (5 ul of human sera/sample)."}, "125I-alpha-BTX [4]": {"tested_on": "125I-alpha-BTX", "assay": "125I-alpha-BTX filter assay of alpha domain expressed in HEK293 cells (SFV vector)", "assay_type": "binding", "settings": "expressed in HEK293 cells with recombinant SFV-1 vector", "method": "[…] Approximately 2×10^6 transfected cells were allowed to express the protein of interest. Cells and medium supernatant were collected after two days. Cells were washed in cocktail buffer (1×PBS pH7.4 with PMSF. 1 mM, aprotinin 5units/ml, leupeptin 5 micrograms/ml, iodoacetamide 1 mM). The medium supernatant (12 ml) was concentrated […] to a final volume of 2.5 ml and dialysed against PBS buffer at 4° C. To extract the receptor, the cell pellet was resuspended in 0.5 ml of cocktail-2% Triton-X100 and the mixture was left at 4° C. with mild agitation. The mixture was subsequently centrifuged at 15000 g for 15 min and the supernatant was tested for ^125I-alpha-BTX binding. The filter assay technique (as described in Example 1) was used to test whether the expressed protein was secreted in the medium supernatant or retained within the cell (in either the cytoplasm or the membrane).\nHaving established that the cloned product is functional, the recombinant SFV plasmid is linearized at SpeI site, purified and used in an in vitro mRNA synthesis using the mMESSAGE mMACHINE kit (Ambion Inc.) Approximately 20 micrograms of mRNA produced is obtained and used to electroporate 0.7 ml of 10^7 cells/ml HEK293 cells. We only use the recombinant SFV-1 vector without the helper plasmid at this stage. Both the cells and the supernatant are collected two days post-electroporation. […]"}},
  "note": "“Also recorded” adds a separate entry of the source. Read-outs that look alike come from different tables or passages of the source.",
  "data": [
    {"molecule": "delta1-224: N-terminal extracellular domain of human muscle AChR delta subunit expressed in Pichia pastoris, FLAG epitope (protein, glycosylated) DYKDDDDKLNEEERLIRHLFQEKGYNKELRPVAHKEESVDVALALTLSNLISLKEVEETLTTNVWIEHGWTDNRLKWNAEEFGNISVLRLPPDMVWLPEIVLENNNDGSFQISYSCNVLVYHYGFVYWLPPAIFRSSCPISVTYFPFDWQNCSLKFSSLKYTAKEITLSLKQDAKENRTYPVEWIIIDPEGFTENGEWEIVHRPARVNVDPRAPLDSPSRQDITFYLIIRRK", "values": [
      {"measurement": "immunoadsorption of anti-AChR antibodies (in words)", "setting": "[1]; immobilized on Sepharose-CNBr", "result": "lower but very significant percentages; also recorded: large fractions"},
      {"measurement": "interaction between recombinant subunit domains", "setting": "alpha1-210", "result": "temporary weak interaction"}
    ]},
    {"molecule": "alpha1-210 (protein, glycosylated at residue 141) SEHETRLVAKLFKDYSSVVRPVEDHRQVVEVTVGLQLIQLINVDEVNQIVTTNVRLKQQWVDYNLKWNPDDYGGVKKIHIPSEKIWRPDLVLYNNADGDFAIVKFTKVLLQYTGHITWTPPAIFKSYCEIIVTHFPFDEQNCSMKLGTWTYDGSVVAINPESDQPDLSNFMESGEWVIKESRGWKHSVTY", "values": [
      {"measurement": "125I-alpha-BTX binding after deglycosylation", "setting": "125I-alpha-BTX [2]", "result": "practically totally lost; also recorded: markedly impaired"},
      {"measurement": "binding of 125I-alpha-BTX (in words)", "setting": "125I-alpha-BTX [2]", "result": "high affinity"},
      {"measurement": "Kd", "setting": "125I-alpha-BTX [2]; read-out: average Kd of 125I-alpha-BTX binding, series of experiments", "result": "5.1 ± 2.4", "unit": "nM"},
      {"measurement": "Kd", "setting": "125I-alpha-BTX [2]; read-out: estimated Kd of 125I-alpha-BTX binding, representative experiment", "result": 3.3, "unit": "nM"},
      {"measurement": "proportion of MG sera with high anti-alpha titers that recognized the protein", "setting": "[3]", "result": 66, "unit": "%"},
      {"measurement": "immunoadsorption with fixed amount of anti-AChR antibodies compared with fixed serum volume", "setting": "[1]; 0.2 ug immobilized protein, 20 fmoles antibodies in variable serum volumes", "result": "identical with the above immunoadsorption results"},
      {"measurement": "percentage of anti-AChR antibodies eliminated, best-adsorbed sera", "setting": "[1]; 0.2 ug immobilized protein", "result": "more than 60%"},
      {"measurement": "percentage of anti-AChR antibodies eliminated, best-adsorbed sera", "setting": "[1]; 0.2 ug immobilized protein, listed as immobilized alpha domain", "result": "more than 60%"},
      {"measurement": "average percentage of anti-AChR antibodies eliminated in all sera tested", "setting": "[1]; all sera tested", "result": 37, "unit": "%"},
      {"measurement": "percentage of immunoadsorption, intermediate sera", "setting": "[1]; another 24 sera (37%) of 64", "result": "20-60%"},
      {"measurement": "immunoadsorption of serum no. 3", "setting": "[1]; serum no. 3, 1 ug of each immobilized subunit, 20 fmoles antibody", "result": 54, "unit": "%"},
      {"measurement": "amount of antibody eliminated by 1 ug immobilized protein", "setting": "[1]; titration experiments, 0.25 ml serum of titer 5 nM", "result": "≥ 1250", "unit": "fmol"},
      {"measurement": "volume of MG serum from which 1 ug immobilized protein eliminates the anti-alpha antibodies", "setting": "[1]; titration experiments, MG serum of titer 5 nM", "result": "at least 0.25 ml"}
    ]},
    {"molecule": "alpha 1-210: extracellular domain of human alpha AChR with ApoE leader and six histidines, expressed in HEK293 cells by SFV vector (protein, glycosylated at residue 141) SEHETRLVAKLFKDYSSVVRPVEDHRQVVEVTVGLQLIQLINVDEVNQIVTTNVRLKQQWVDYNLKWNPDDYGGVKKIHIPSEKIWRPDLVLYNNADGDFAIVKFTKVLLQYTGHITWTPPAIFKSYCEIIVTHFPFDEQNCSMKLGTWTYDGSVVAINPESDQPDLSNFMESGEWVIKESRGWKHSVTY", "values": [
      {"measurement": "ability to bind 125I-alpha-BTX", "setting": "125I-alpha-BTX [4]", "result": "good ability to bind"}
    ]}
  ]
}
